Results from patent US20230365700A1 (BIOSION, published 2023).
Where two headings read alike, the source gives them in different places.

Experiments:
[1] = molecular target: T1, human CD40-Fc protein (amino acid residue 21-193 of SEQ ID NO: 30 linked to N-terminus of amino acid residue … (human, biotin-labeled in the capture ELISA and the benchmark blocking ELISA; unlabeled when coated in the ligand blocking ELISA); assay: capture ELISA: antibody captured on goat anti-mouse IgG F(ab')2-specific coat, detected with biotin-labeled human CD40-Fc (1.15 nM) and streptavidin-HRP; OD(450-630)
T1 construct: also called biotin-labeled human CD40-Fc; human CD40-Fc-biotin
Protocol: (§1) Plates were washed once with wash buffer (PBS+0.05% v/v Tween-20, PBST) and then blocked with 200 μl/well blocking buffer (5% w/v non-fatty milk in PBST) for 2 hours at 37° C. Plates were washed 4 times and incubated with 100 μl/well serially diluted anti-CD40 antibodies of the disclosure, BM1, BM2 and negative control hIgG (human immunoglobulin (pH4) for intravenous injection, Hualan Biological Engineering Inc.) (5-fold serial dilution in 2.5% w/v non-fatty milk in PBST, starting at 66.7 nM) for 40 minutes at 37° C., and then washed 4 times again. […] After a final wash, plates were incubated with 100 μl/well ELISA substrate TMB (Innoreagents, Cat #TMB-S-002) at room temperature. The reaction was stopped in 3-10 minutes with 50 μl/well 1M H₂SO₄, and the absorbance of each well was read on a microplate reader using dual wavelength mode with 450 nm for TMB and 630 nm as the reference wavelength, then the OD (450-630) values were plotted against antibody concentration. Data was analyzed using Graphpad Prism software and EC₅₀ values were reported.

[2] = molecular target: T2, full length human CD40 (uniprot #P25942-1, SEQ ID NO: 30) on 293T cells (human, UniProt P25942 21-277); assay: flow cytometry (FACS) on 293T-CD40 cells expressing full length human CD40; MFI
Protocol: (§2) 2×10⁵ cells were incubated in each well of 96 well-plates in 100 μl anti-CD40 antibodies of the disclosure or controls of various concentrations (starting at 80 nM with a 4-fold serial dilution) in FACS buffer for 40 minutes on ice. […] Following an incubation of 40 minutes at 4° C. in dark, cells were washed three times and resuspended in FACS buffer. Fluorescence was measured using a Becton Dickinson FACS Canto II-HTS equipment and plotted against antibody concentration. Data was analyzed using Graphpad Prism software and EC₅₀ values were reported.

[3] = molecular target: T1, human CD40-Fc protein (amino acid …); assay: competitive ELISA: antibody pre-incubated with biotin-labeled human CD40-Fc (0.23 nM), mixture added to coated BM2; competitor: BM2; OD(450-630); only partial: OD falls from about 1.13 to a plateau of about 0.77
Protocol: (§3) The abilities of the anti-CD40 antibodies of the disclosure to block Benchmark-human CD40 binding was measured in a competitive ELISA assay. Briefly, the BM2 antibody was coated on 96-well micro plates at 1 μg/mL in PBS, 100 μl per well, and incubated overnight at 4° C. The next day, plates were washed once with wash buffer, and blocked with blocking buffer (5% w/v non-fatty milk in PBST) for 2 hours at 37° C. While blocking, the anti-CD40 antibodies of the disclosure or controls were diluted with biotin labeled human CD40-Fc protein (amino acid residue 21-193 of SEQ ID NO: 30 linked to N-terminus of amino acid residue 99-330 of SEQ ID NO.:28, 0.23 nM in 2.5% v/v non-fatty milk in PBST), starting at 66.7 nM with a 5-fold serial dilution, and incubated at room temperature for 40 minutes. After plate washing 4 times, the antibody/human CD40-Fc-biotin mixtures were added to BM2 coated plates, 100 μl/well. After incubation at 37° C. for 40 minutes, plates were washed 4 times again using wash buffer. […] Finally, TMB was added and the reaction was stopped using 1M H2504, and the absorbance was read on a microplate reader using dual wavelength mode with 450 nm for TMB and 630 nm as the reference wavelength, then the OD (450-630) values were plotted against antibody concentration. Data was analyzed using Graphpad Prism software and IC₅₀ values were reported.

[4] = molecular target: T1, human CD40-Fc protein (amino acid …); assay: competitive ELISA: antibody pre-incubated with biotin-labeled human CD40-Fc (0.23 nM), mixture added to coated BM2; competitor: BM2; OD(450-630)
Protocol: as §3

[5] = molecular target: T2, full length human CD40 (uniprot …); assay: flow cytometry (FACS) on 293T-CD40 cells expressing full length human CD40; MFI; remark: listed apart in the source
Protocol: as §2

[6] = molecular target: T1, human CD40-Fc protein (amino acid …); assay: competitive ELISA: antibody added to coated human CD40-Fc, then biotin-labeled human CD40L-his (95 ng/mL); blocked ligand: CD40L-his; OD(450-630)
Protocol: (§4) The abilities of anti-CD40 antibodies to block CD40-CD40L binding were measured in a competitive ELISA assay. Briefly, 100 μl human CD40-Fc protein (amino acid residue 21-193 of SEQ ID NO: 30 linked to N-terminus of amino acid residue 99-330 of SEQ ID NO.:28) was coated on 96-well micro plates at 2 μg/mL in coating buffer (carbonate/bicarbonate buffer) and incubated overnight at 4° C. The next day, plates were washed once with wash buffer (PBS+0.05% v/v Tween-20, PBST), and blocked with 5% w/v non-fatty milk in PBST for 2 hours at 37° C. Plates were then washed 4 times using wash buffer.
Serially diluted anti-CD40 antibodies of the disclosure or controls (starting at 200 nM with a five-fold serial dilution) in PBST with 2.5% w/v non-fatty milk were added to the CD40-Fc bound plates, 100 μl per well, and incubated at 37° C. for 40 minutes. […] Finally, TMB was added and the reaction was stopped using 1M H2504, and the absorbance of each well was read on a microplate reader using dual wavelength mode with 450 nm for TMB and 630 nm as the reference wavelength, then the OD (450-630) values were plotted against antibody concentration. Data was analyzed using Graphpad Prism software and IC₅₀ values were reported.

[7] = molecular target: T1, human CD40-Fc protein (amino acid …); assay: capture ELISA: antibody captured on goat anti-mouse IgG F(ab')2-specific coat, detected with biotin-labeled human CD40-Fc (1.15 nM) and streptavidin-HRP; OD(450-630); remark: listed apart in the source
Protocol: as §1

[8] = molecular target: T1, human CD40-Fc protein (amino acid …); assay: competitive ELISA: antibody added to coated human CD40-Fc, then biotin-labeled human CD40L-his (95 ng/mL); blocked ligand: CD40L-his; OD(450-630); remark: listed apart in the source
Protocol: as §4
Serially diluted anti-CD40 antibodies of the disclosure or controls (starting at 200 nM with a five-fold serial dilution) in PBST with 2.5% w/v non-fatty milk were added to the CD40-Fc bound plates, 100 μl per well, and incubated at 37° C. for 40 minutes. Plates were washed 4 times again using wash buffer, and then added and incubated for 40 minutes at 37° C. with 100 μl/well 95 ng/mL biotin-labeled human CD40L-his protein (Sino biological Inc., Cat #10239-H08E). Plates were washed again using wash buffer. Thereafter, the plates were added with 100 μl/well of streptavidin conjugated HRP (1:10000 dilution in PBST buffer, Jackson Immunoresearch, Cat #016-030-084) and incubated for 40 minutes at 37° C. Plates were washed again using wash buffer. Finally, TMB was added and the reaction was stopped using 1M H2504, and the absorbance of each well was read on a microplate reader using dual wavelength mode with 450 nm for TMB and 630 nm as the reference wavelength, then the OD (450-630) values were plotted against antibody concentration. Data was analyzed using Graphpad Prism software and IC₅₀ values were reported.

[9] = molecular target: T1, human CD40-Fc protein (amino acid …); assay: competitive ELISA: antibody pre-incubated with biotin-labeled human CD40-Fc (0.23 nM), mixture added to coated BM2; competitor: BM2 (self-competition); OD(450-630)
Protocol: as §3

[10] = molecular target: T1, human CD40-Fc protein (amino acid …); assay: as above; remark: listed apart in the source
Protocol: as §3

[11] = molecular target: T1, human CD40-Fc protein (amino acid …); assay: capture ELISA: antibody captured on goat anti-mouse IgG F(ab')2-specific coat, detected with biotin-labeled human CD40-Fc (1.15 nM) and streptavidin-HRP; OD(450-630); the curve reaches only OD about 0.9 at the highest concentration, no plateau
Protocol: as §1

[12] = molecular target: T1, human CD40-Fc protein (amino acid …); assay: competitive ELISA: antibody pre-incubated with biotin-labeled human CD40-Fc (0.23 nM), mixture added to coated BM2; competitor: BM2; OD(450-630); only partial: OD falls from about 1.13 to a plateau of about 0.92
Protocol: as §3

| Binder | EC50 [1] [nM] | EC50 [2] [nM] | IC50 [3] [nM] | IC50 [4] [nM] | EC50 [5] [nM] | IC50 [6] [nM] | EC50 [7] [nM] | IC50 [8] [nM] | IC50 [9] [nM] | IC50 [10] [nM] | EC50 [11] [nM] | IC50 [12] [nM] |
| --- | --- | --- | --- | --- | --- | --- | --- | --- | --- | --- | --- | --- |
| mouse anti-CD40 monoclonal antibody 1A3 (antibody, V domains shown, Hybridoma-derived mouse mAb; also called Clone 1A3) VH: EVQLQQSGPELVKTGASVKISCKASGYSFIGYYLHWVKQSLGKGLEWIGYISCHDGTIIYNQKFKGKATFTLDTSSSTAYMQFSSLTSEDSAVYFCARFLNYYGSNYAMDYWGQGTSVTVSS VL: DIVMTQSHKFMSTSVGDRVSITCKASQDVGPAVAWYQQKPGQSPKLLIYWASTRHTGVPDRFTGSGYGTDFTLTINNVQSEDLADYFCQQYFTYPLTFGGGTKLEIK | 0.0906 | 1.71 | 0.18 |  |  |  |  |  |  |  |  |  |
| BM1 (Dacetuzumab) (antibody, human IgG1, kappa, V domains shown, Benchmark antibody, made in house; also called CD40-BM1; benchmark) VH: EVQLVESGGGLVQPGGSLRLSCAASGYSFTGYYIHWVRQAPGKGLEWVARVIPNAGGTSYNQKFKGRFTLSVDNSKNTAYLQMNSLRAEDTAVYYCAREGIYWWGQGTLVTVSS VL: DIQMTQSPSSLSASVGDRVTITCRSSQSLVHSNGNTFLHWYQQKPGKAPKLLIYTVSNRFSGVPSRFSGSGSGTDFTLTISSLQPEDFATYFCSQTTHVPWTFGQGTKVEIKR | 0.236 | 0.975 |  | 0.234 | 2.46 | 6.95 | 0.248 | 7.91 |  |  |  |  |
| BM2 (Selicrelumab) (antibody, human IgG2, kappa, V domains shown, Benchmark antibody, made in house; also called CD40-BM2; benchmark) VH: not shown VL: DIQMTQSPSSVSASVGDRVTITCRASQGIYSWLAWYQQKPGKAPNLLIYTASTLQSGVPSRFSGSGSGTDFTLTISSLQPEDFATYYCQQANIFPLTFGGGTKVEIKR | 0.637 | 2.01 |  |  | 3.26 | 9 | 0.28 | 9.7 | 0.678 | 0.804 |  |  |
| mouse anti-CD40 monoclonal antibody C1H1 (antibody, V domains shown, Hybridoma-derived mouse mAb purified on Protein A; also called mouse C1H1; Clone C1H1) VH: EVKLVESGGGLVKPGASLKLSCAASGFTFSNYGISWVRQTSDKRLEWVASISSGGDNTYYPDNVKGRFTISRENAKNTLYLQMSSLKSEDTALYYCARAGEKAMDYWGQGTSVTVSS VL: DIVLTQSPVTLSVTPGDSVSLSCRASQTINNNLHWYQQKSHESPRLLIKYASQSISGIPSRFSGSGSGTDFTLSINSVETEDFGIYFCQQFSSWPLTFGAGTKLELK |  |  |  |  | 1.95 |  | 0.0774 | 7.83 |  |  |  |  |
| mouse anti-CD40 monoclonal antibody 1D1 (antibody, V domains shown, Hybridoma-derived mouse mAb; also called Clone 1D1) VH: EVQLQQSGPELVKPGASVKMSCKASGYTFTDYVMHWVKQKPGQGLECIGYINPYNDGTTYNEKFKGKATLTSDKSSNAAYLELSSLTSEDSAVYYCARGFLRESWFGYWGQGTLVTVSA VL: DVLLTQTPLSLPVSLGDQASISCRSSQNIVHSNGNTYLDWYLQKPGQSPKLLIYKVSNRFSGVPDRFSGSGSGTDFTLKISRVEAEDLGVYYCFQGSHVPPTFGGGTKLELK |  | 1.79 |  |  |  |  |  |  |  |  | 10.9 | 4.84 |
